This experiment deals with ischemic stroke (tMCAO) in mice. Nature of the experiment: Transient middle cerebral artery occlusion (tMCAO) stroke model. Format: in vivo, mouse. How it is done:
Next, the question of whether cerebral ischemia/reperfusion injury effects circulating levels of NETs was addressed. Wild-type C57BL/6 mice were subjected to 2 hours of transient middle cerebral artery occlusion (tMCAO), followed by 22 hours of reperfusion. Focal cerebral ischemia was induced by 60 or 120 min tMCAO. Mice were anesthetized with 2% isoflurane/oxygen mixture. Following a midline skin incision in the neck, the proximal common carotid artery, and the external carotid artery were ligated, and a standardized silicon rubber-coated 6.0 nylon monofilament (6021; Doccol Corp., Redlands, CA) was inserted and advanced via the right internal carotid artery to occlude the origin of the right MCA. […] The intraluminal suture was left in situ during the complete occlusion time. Then animals were re-anesthetized, and the occluding monofilament was withdrawn to allow reperfusion. In animals undergoing a sham treatment, the exact same procedure was followed except that the monofilament was only inserted three quarters of the normal distance that is necessary to occlude the MCA, after which it was immediately withdrawn. Some animals were exclusively used for laser-Doppler flowmetry (Periflux 5000, Perimed, Kings Park, NY) to monitor regional cerebral blood flow (rCBF) in the MCA territory.
Wild type (WT) and […] mice were subjected to 1 h of tMCAO and 23 h of reperfusion after which mice and brains were analyzed. Mice were killed 24 hours after initiation of tMCAO. Brains were quickly removed and cut into 2-mm-thick coronal sections using a mouse brain slice matrix. The slices were stained with 2% 2,3,5-triphenyl-tetrazolium chloride (TTC; Sigma-Aldrich, St. Louis, MO) in PBS to visualize the infarctions. Sections were photographed with a digital Nikon D70 camera and infarct areas (white) were measured blindly using Image J software (National Institutes of Health). Brain infarct volumes were measured by planimetry (FIG. 9A). Compared to the wild-type controls, DNase-1^−/− mice developed larger brain infarctions (84.10±7.24 mm^3 versus 58.50±4.04 mm^3, p<0.05, FIG. 9A).
Neurological function was assessed, blinded for the mouse genotype 24 h, after initiation of tMCAO, using the modified Bederson score (Bederson et al., Stroke 1986 17:472-6). This test determines global neurological function according to the following scoring system: 0, no deficit; 1, forelimb flexion; 2, decreased resistance to lateral push; 3, unidirectional circling; 4, longitudinal spinning; 5, no movement. The grip test was performed as described (Moran et al., PNAS 1995 92:5341-5). A mouse was placed on a wooden bar (3 mm in diameter, 40 cm long) that is attached to two vertical supports 40 cm above a flat surface. When placing the mouse at a point midway between the supports, the experiment was rated according to the following system: 0, falls off; 1, hangs onto bar by two forepaws; 2, as for 1, but attempts to climb onto bar; 3, hangs onto bar by two forepaws plus one or both hindpaws; 4, hangs onto bar by all four paws plus tail wrapped around bar; 5, escape (where mouse was able to work its way to one of the supports). […] The turns in one versus the other direction were recorded from ten trials for each test. Turning movements that were not part of a rearing movement were not scored. […]

Setting [1] is: rhDNase-1 vs vehicle, 24 h, p<0.05.

B1: rhDNase-1: recombinant human DNase-1 (Dornase alpha, Pulmozyme, Genentech) (protein, UniProt P24855 23-282, looked up)
Deoxyribonuclease-1: LKIAAFNIQTFGETKMSNATLVSYIVQILSRYDIALVQEVRDSHLTAVGKLLDNLNQDAPDTYHYVVSEPLGRNSYKERYLFVYRPDQVSAVDSYYYDDGCEPCGNDTFNREPAIVRFFSRFTEVREFAIVPLHAAPGDAVAEIDALYDVYLDVQEKWGLEDVMLMGDFNAGCSYVRPSQWSSIRLWTSPTFQWLIPDSADTTATPTHCAYDRIVVAGMLLRGAVVPDSALPFNFQAAYGLSDQLAQAISDHYPVEVMLK
For the molecule B1, the brain infarct volume (1 h tMCAO, 23 h reperfusion, 50 μg i.p. 15 min before surgery and 12 h later, 10 μg i.v. 5 min before reperfusion, vehicle 81.45±9.08) is given as 50.67±8.74 mm^3. Under “1 h tMCAO, 23 h reperfusion, rhDNase-1 vs vehicle”, the “infarct size smaller than vehicle” value is given as “approximately 40%”. Under setting [1], the Bederson test score result is “significantly better”, the corner test result is “significantly better” and the grip test score entry was “significantly better”.

Values taken from patent US11819540B2, “Methods for treating and preventing neutrophil-derived net toxicity and thrombosis” (CHILDREN'S MEDICAL CENTER CORPORATION, priority 2011, dated 2023).
